{"source": "patent US20240261333A1", "about": "(published 2024)", "assay_in_all_cases": "co-IP with anti-FLAG, N-FLAG B3GNT2, mass spectrometry", "key": {"RUVBL2": {"molecular_target": "T1, RUVBL2 (human, UniProt Q9Y230 2-463)", "T1 construct": "also called NP_006657.1", "T1 sequence (Q9Y230 2-463 limits assumed)": "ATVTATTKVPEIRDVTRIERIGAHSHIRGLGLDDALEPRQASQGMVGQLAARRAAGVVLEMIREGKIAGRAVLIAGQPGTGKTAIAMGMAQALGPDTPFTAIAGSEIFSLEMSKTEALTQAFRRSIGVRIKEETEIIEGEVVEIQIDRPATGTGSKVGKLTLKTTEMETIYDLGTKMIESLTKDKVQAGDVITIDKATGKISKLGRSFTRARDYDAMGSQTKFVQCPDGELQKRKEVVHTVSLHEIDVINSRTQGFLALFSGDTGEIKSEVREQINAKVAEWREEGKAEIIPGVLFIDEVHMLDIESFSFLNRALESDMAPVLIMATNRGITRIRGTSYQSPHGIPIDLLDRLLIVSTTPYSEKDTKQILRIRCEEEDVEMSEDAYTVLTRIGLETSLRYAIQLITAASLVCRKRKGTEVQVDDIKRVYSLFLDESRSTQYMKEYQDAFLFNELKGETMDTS", "method": "(§1) Cells were plated in 10-cm cell culture dishes and grown to 60-80% confluency. For each condition, two biological replicates were harvested for co-IP. Cells were washed with PBS and 4 mL of lysis buffer (20 mM HEPES, 1% Triton X-100, 150 mM NaCl, 1 mM EDTA, and 10% glycerol) containing protease inhibitor cocktail was added. Cells were scraped and lysate was incubated at 4° C. under rotary agitation for 1 h. Lysate was centrifuged at 14,000×g for 10 min at 4° C. Supernatant was transferred to a new tube and an aliquot was taken as the input. […] For Western blots, 10 μg/mL Chicken Anti-FLAG (Aves labs ET-DY100) and IgY control (R&D Systems AB-101-C) antibodies were biotinylated (Thermo Fisher Scientific 90407) and added to the respective conditions. Lysates with antibodies were incubated at 4° C. under rotary agitation overnight. For each mL of lysate, 50 μL of Pierce Protein A/G Magnetic Beads (Mass spectrometry; Thermo Fisher Scientific 88803) or Pierce Streptavidin Magnetic Beads (Western blot; Thermo Fisher Scientific 88817) was washed twice with lysis buffer. Lysates with antibodies were added to the beads and incubated at 4° C. under rotary agitation for 4 h. Beads were washed with lysis buffer 3 times and resuspended in lysis buffer for storage.\n(§2) Magnetic beads were resuspended in 100 mM Tris pH 7.8, reduced, alkylated and digested with trypsin at 37° ° C. overnight. This solution was subjected to solid phase extraction to concentrate the peptides and remove unwanted reagents followed by injection onto a Shimadzu HPLC with fraction collector. Eight fractions were collected and after concentration were injected on a Waters NanoAcquity HPLC equipped with a self-packed Aeris 3 μm C18 analytical column 0.075 mm by 20 cm, (Phenomenex). Peptides were eluted using standard reverse-phase gradients. The effluent from the column was analyzed using a Thermo Orbitrap Elite mass spectrometer (nanospray configuration) operated in a data dependent manner for 54 minutes. The resulting fragmentation spectra were correlated against the known database using Proteome Discover 1.4 (Thermo Fisher Scientific)."}, "TTC13": {"molecular_target": "T2, TTC13 (human, UniProt Q8NBP0-2 1-806, limits assumed)", "T2 construct": "also called NP_001116307.2 (+5)", "T2 sequence (looked up)": "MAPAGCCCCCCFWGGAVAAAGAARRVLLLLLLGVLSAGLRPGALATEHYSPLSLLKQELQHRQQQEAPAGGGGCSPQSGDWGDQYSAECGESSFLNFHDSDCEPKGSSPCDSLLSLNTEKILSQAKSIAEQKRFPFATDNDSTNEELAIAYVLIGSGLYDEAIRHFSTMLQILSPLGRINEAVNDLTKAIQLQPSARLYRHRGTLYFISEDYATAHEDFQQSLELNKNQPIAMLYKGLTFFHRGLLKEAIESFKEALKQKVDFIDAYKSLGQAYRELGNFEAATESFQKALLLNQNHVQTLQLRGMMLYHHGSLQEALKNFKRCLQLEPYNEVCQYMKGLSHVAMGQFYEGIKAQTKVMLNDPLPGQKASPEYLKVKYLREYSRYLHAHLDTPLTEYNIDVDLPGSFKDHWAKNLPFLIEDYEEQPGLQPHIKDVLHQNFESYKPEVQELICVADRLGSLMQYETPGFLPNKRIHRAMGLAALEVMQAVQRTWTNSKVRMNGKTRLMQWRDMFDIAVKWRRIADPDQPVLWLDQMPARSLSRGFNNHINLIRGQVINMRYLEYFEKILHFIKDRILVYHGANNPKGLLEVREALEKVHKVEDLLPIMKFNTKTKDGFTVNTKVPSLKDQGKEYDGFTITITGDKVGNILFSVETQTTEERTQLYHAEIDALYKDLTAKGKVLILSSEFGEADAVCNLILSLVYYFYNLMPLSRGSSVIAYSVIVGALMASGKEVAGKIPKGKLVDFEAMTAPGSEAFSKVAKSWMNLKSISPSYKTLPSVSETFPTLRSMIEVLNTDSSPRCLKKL", "method": "as §1, §2"}, "SBSN": {"molecular_target": "T3, SBSN (human, UniProt Q6UWP8 26-590)", "T3 construct": "also called NP_00159506.1 (+2)", "T3 sequence (looked up)": "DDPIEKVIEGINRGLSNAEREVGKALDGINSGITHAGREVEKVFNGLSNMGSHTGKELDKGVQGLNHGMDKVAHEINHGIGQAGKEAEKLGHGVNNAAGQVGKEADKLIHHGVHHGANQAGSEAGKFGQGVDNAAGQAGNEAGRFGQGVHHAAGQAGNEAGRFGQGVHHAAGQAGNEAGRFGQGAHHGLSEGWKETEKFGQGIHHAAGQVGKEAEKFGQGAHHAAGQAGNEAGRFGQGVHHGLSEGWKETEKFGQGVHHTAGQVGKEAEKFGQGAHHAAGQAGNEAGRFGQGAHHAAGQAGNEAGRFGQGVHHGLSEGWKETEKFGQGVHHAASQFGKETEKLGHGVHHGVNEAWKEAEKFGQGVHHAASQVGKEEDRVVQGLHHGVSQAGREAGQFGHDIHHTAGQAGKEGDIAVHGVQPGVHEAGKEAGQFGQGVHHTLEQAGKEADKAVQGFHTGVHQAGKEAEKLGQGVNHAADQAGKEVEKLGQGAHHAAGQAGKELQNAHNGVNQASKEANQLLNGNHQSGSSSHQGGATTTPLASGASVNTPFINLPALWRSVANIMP", "method": "as §1, §2"}, "PUF60": {"molecular_target": "T4, PUF60 (human, UniProt Q9UHX1 1-559, limits assumed)", "T4 construct": "also called NP_016868724.1", "T4 sequence (looked up)": "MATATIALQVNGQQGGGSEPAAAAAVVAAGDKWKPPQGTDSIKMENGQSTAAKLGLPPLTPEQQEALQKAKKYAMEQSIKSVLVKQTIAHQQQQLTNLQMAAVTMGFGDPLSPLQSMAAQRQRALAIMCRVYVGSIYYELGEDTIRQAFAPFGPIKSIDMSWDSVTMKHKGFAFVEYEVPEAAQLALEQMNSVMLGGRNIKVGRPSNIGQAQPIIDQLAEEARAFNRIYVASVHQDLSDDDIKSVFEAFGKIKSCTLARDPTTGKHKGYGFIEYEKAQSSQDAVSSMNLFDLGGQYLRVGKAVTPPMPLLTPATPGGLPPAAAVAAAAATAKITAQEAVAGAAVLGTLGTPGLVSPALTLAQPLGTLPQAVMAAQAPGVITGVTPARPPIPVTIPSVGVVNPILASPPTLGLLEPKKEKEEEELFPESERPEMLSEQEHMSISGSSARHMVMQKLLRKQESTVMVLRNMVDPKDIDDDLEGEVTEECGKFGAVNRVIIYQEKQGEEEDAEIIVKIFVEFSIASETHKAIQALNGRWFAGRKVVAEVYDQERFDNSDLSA", "method": "as §1, §2"}}}
{"binder": "N-terminal FLAG tagged B3GNT2 (enzyme, human, UniProt Q9NY97 1-397, looked up, FLAG-tagged ORF overexpressed in A375 cells; pulled down from the lysate with mouse anti-FLAG; also called N-FLAG B3GNT2; N-term FLAG; not shown: N-terminal FLAG tag) MSVGRRRIKLLGILMMANVFIYFIMEVSKSSSQEKNGKGEVIIPKEKFWKISTPPEAYWNREQEKLNRQYNPILSMLTNQTGEAGRLSNISHLNYCEPDLRVTSVVTGFNNLPDRFKDFLLYLRCRNYSLLIDQPDKCAKKPFLLLAIKSLTPHFARRQAIRESWGQESNAGNQTVVRVFLLGQTPPEDNHPDLSDMLKFESEKHQDILMWNYRDTFFNLSLKEVLFLRWVSTSCPDTEFVFKGDDDVFVNTHHILNYLNSLSKTKAKDLFIGDVIHNAGPHRDKKLKYYIPEVVYSGLYPPYAGGGGFLYSGHLALRLYHITDQVHLYPIDDVYTGMCLQKLGLVPEKHKGFRTFDIEEKNKNNICSYVDLMLVHSRKPQEMIDIWSQLQSAHLKC", "values": [{"measurement": "co-IP/MS count, N-term FLAG", "setting": "RUVBL2", "result": 0}, {"measurement": "co-IP/MS count, N-term FLAG", "setting": "TTC13", "result": 0}, {"measurement": "co-IP/MS count, N-term FLAG", "setting": "SBSN", "result": 27}, {"measurement": "co-IP/MS count, N-term FLAG", "setting": "PUF60", "result": 6}]}
